Molecular target: DBD-TSSK2 (myc tagged): human TSSK2 ORF fused with the Gal4 DNA-binding domain (pGBK-TSSK2) (human)
Assay: cell-based or functional assay

alpha-galactosidase activity as percentage of full length TSKS (% of full length TSKS) | alpha-galactosidase activity as percentage of full length TSKS (% reduction against full length TSKS) | Substance
5 |  | TSKS deletion mutant lacking the first 48 amino acids, fused with the Gal4 activation domain (pGAD) (from UniProt Q9UJT2 49-592)
 | 75 | TSKS deletion mutant lacking the carboxyl terminus and second coiled-coil region, fused with the Gal4 activation domain (pGAD) (from UniProt P04386 768-881)

Reference: US20080274117A1
